{"source": "IntAct's records for PubMed 29433439", "parents": {"B1": {"name": "Phosphocholine transferase AnkX (Legionella pneumophila subsp. pneumophila), Q5ZXN6 (parent)", "chain": "MVKIMPNLPGLYFLQAYPSEEIWRLFVDGRFWSKENGWRGYESREPGCLNAALESLCSIALQVEKSGEEFELSVDLIKRIHKKCGKKVEELQEKNPGELRTDEPVSFGIPAGRASIKGIEEFLSLVFLTEGGAEFGPGKAGPFGPRFDKNYFKNLNPEQIPDLAKQIYFDMCKYGHSNTNHFYLAVMKNVDVYLEKITQSYNKEIKTAETLDEKLKIIVKHIRMYEVLHPFRDANGRTFVNNLLNILLMQQGLPPATFYEPNVFDLYSAEELVVVVKEAIFNTVEIIEQSKRKTPITLYGYHSSLEEQTKFRDMLDSPSYEKIKHMDFSDLNPEKLHLKTQKCLSSLNEQYPLHRGAIYLSDPGEIKLLLSNRNESQINQQIEQGAPPIYVGKTPAHLAVISGNMAMLDELIAKKADLSLQDYDGKTALHYAAECGNMQIMGKILKVVLSQEDAIKVLNIKDNHGKTAFHYAAEFGTPELISALTTTEVIQINEPDNSGSSAITLAYKNHKLKIFDELLNSGADISDELLDAIWARKDKETLGKIIAKNEKILLNKEAFRIAISLGSVSLVKKFLRAGVDIDIPLTKDKATPLMLSINSGNPKLVSYLLKKGANTRLTDTSGNSVLHYVFYSKAENREALANIITEKDKKLINQPNANGNPPLYNAVVVNDLKMATILLEMGARVDFEDRLGNNILHSAMRRCDLPIILDIVKKDSTLLHKRNSERRNPFHQALHEMHTFPSSKETEEIHFMNLSDLLLKEGVDLNKKDIKGKTILDIALSKQYFHLCVKLMKAGAHTNISSPSKFLKNSDANSILERPFKFKNDLKKELDNNPLIAMAQINDLYVQIKNNRIRTPTGYAPKEGVSFFKGKSNDAKAHDEVLSVLKELYDSKLTEMLGNLPGEGLEEIKRSQKFFDGELKLLIKNQDISRKVDKKSIQEAVGTSLKLKW", "partner": "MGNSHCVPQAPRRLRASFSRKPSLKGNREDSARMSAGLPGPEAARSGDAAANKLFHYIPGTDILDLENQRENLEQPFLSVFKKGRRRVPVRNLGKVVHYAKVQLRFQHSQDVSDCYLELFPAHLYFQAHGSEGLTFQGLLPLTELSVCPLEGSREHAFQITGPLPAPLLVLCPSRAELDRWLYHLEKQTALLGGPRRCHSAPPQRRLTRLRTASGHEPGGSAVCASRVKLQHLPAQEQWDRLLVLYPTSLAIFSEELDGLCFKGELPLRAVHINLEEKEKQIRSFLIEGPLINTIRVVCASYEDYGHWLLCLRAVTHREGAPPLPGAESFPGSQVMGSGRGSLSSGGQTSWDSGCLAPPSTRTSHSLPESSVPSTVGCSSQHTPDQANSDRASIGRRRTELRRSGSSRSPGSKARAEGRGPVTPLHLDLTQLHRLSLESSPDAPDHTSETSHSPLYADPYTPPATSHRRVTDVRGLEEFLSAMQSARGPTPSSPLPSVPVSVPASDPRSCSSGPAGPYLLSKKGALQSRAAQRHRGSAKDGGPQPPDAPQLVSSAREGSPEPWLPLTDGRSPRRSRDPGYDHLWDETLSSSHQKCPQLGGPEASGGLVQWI"}}}
{"variants_of": "B1", "settings": "with pkhn1_human PLEKHN1, Q494U1"}
{"variant": "H229A", "effect of a mutation on the interaction": "decreasing interaction"}
